Read-outs that look alike come from different tables or passages of the source.
Tests used:
TGF-β1 [1] = molecular target: TGF-β1 (UniProt P01137); assay: cell-based or functional assay
TGF-β3 = TGF-β3 (UniProt P10600); assay: cell-based or functional assay
TGF-β1 [2] = molecular target: TGF-β1 (UniProt P01137)
TGF-β1 [3] = molecular target: TGF-β1 (UniProt P01137); remark: listed apart in the source

Sequence of TGF-β1 (P01137 279-390 limits assumed): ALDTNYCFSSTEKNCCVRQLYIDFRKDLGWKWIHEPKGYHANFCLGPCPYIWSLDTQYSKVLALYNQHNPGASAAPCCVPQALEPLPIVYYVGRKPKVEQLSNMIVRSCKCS
Sequence of T22d35 (P37173 other isoform, or with tags, fused parts or gaps limits assumed): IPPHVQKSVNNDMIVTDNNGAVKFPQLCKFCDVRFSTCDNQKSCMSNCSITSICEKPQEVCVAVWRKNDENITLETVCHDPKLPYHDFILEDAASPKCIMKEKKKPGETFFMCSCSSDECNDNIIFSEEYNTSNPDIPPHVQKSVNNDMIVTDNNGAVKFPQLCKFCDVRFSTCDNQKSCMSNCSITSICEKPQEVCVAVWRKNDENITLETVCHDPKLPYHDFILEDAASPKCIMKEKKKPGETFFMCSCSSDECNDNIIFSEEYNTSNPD
Sequence of TGF-β3 (P10600 301-412 limits assumed): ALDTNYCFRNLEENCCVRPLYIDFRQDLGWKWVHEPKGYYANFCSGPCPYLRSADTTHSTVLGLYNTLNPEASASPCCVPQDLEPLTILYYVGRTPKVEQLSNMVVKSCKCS

Substance | Av IC50, TGF-β neutralization, Mv1Lu cell luciferase reporter assay (TGF-β1 [1]) [nM] | Av IC50, TGF-β neutralization, Mv1Lu cell luciferase reporter assay (TGF-β3) [nM] | IC50, A549 cell IL-11 release assay (TGF-β1 [1]) [nM] | IC50, A549 cell IL-11 release assay (second set, FIG. 4C) (TGF-β1 [1]) [nM] | IC50, A549 cell IL-11 release assay [table] (TGF-β1 [2]) [nM] | Fold Change Fc-T2m, A549 cell IL-11 release assay [table] (TGF-β1 [3]) [fold] | Fold Change T22d35, A549 cell IL-11 release assay [table] (TGF-β1 [3]) [fold] | IC50, A549 cell IL-11 release assay [table] (TGF-β1 [3]) [nM]
T2-hIgG1Fc fusion from R&D | 0.506 | 0.323 |  |  |  |  |  | 
T22d35 (from UniProt P37173 24-222) (receptor) | 1.23 | 0.033 | 0.5 | 0.5 | 0.526 | 0.1 | 1 | 0.58

Reference: US20200231652A1
